Measurements as given in patent publication US20110281938A1 (BAXTER INTERNATIONAL, published 2011).

Biological target: T1, Full-length TFPI (recombinant human tissue factor pathway inhibitor, American Diagnostica, E. coli expressed) (human, UniProt P10646 29-304)
T1 construct: also called recombinant TFPI; human TFPI
T1 sequence: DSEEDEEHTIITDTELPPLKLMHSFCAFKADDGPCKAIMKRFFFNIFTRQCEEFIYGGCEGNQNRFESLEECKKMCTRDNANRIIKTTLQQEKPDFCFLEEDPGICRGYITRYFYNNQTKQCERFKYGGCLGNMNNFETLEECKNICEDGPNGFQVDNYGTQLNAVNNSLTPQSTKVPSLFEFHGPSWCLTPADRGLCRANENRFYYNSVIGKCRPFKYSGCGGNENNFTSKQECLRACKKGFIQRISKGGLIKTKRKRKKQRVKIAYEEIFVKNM
Assay: dot-blot (nitrocellulose filtration) binding competition: 10 nM TFPI, trace radiolabeled aptamer ARC17480 as the displaced ligand, FXa varied 2000-0.10 nM
Experimental: For these experiments, human TFPI at a final concentration of 10 nM (American Diagnostica, Stamford, Conn., catalog #4900PC) was incubated with trace amounts of radiolabeled ARC17480 and different concentrations of human FXa (Haematologic Technologies, Essex Junction, Vt. catalog #HCXA-0060) or ARC19499 (2000 nM-0.10 nM). A control was also carried out in the absence of TFPI in which trace amounts of radiolabeled ARC17480 was incubated with different concentrations of FXa (2000 nM-0.10 nM). The percentage of radiolabeled ARC17480 bound was plotted as a function of competitor concentration and fit to the equation y=(max/(1+x/IC₅₀))+int, where y=the percentage of radiolabeled ARC17480 bound, x=the concentration of competitor, max=the maximum radiolabeled ARC17480 bound, and int=the y-intercept, to generate an IC₅₀ value for binding-competition. […] FXa partially competes with ARC17480 for binding to TFPI, as evidenced by a plateau in the competition-binding curve at concentrations above ˜75 nM. In contrast, ARC19499 completely competes with radiolabeled ARC17480 for binding to TFPI.

IC50 (read off the curve): ~7 nM
B1: human FXa (Haematologic Technologies, catalog #HCXA-0060) (enzyme)
chain 1: ANSFLEEMKKGHLERECMEETCSYEEAREVFEDSDKTNEFWNKYKDGDQCETSPCQNQGKCKDGLGEYTCTCLEGFEGKNCELFTRKLCSLDNGDCDQFCHEEQNSVVCSCARGYTLADNGKACIPTGPYPCGKQTLER
chain 2: IVGGQECKDGECPWQALLINEENEGFCGGTILSEFYILTAAHCLYQAKRFKVRVGDRNTEQEEGGEAVHEVEVVIKHNRFTKETYDFDIAVLRLKTPITFRMNVAPACLPERDWAESTLMTQKTGIVSGFGRTHEKGRQSTRLKMLEVPYVDRNSCKLSSSFIITQNMFCAGYDTKQEDACQGDSGGPHVTRFKDTYFVTGIVSWGEGCARKGKYGIYTKVTAFLKWIDRSMKTRGLPKAKSHAPEVITSSPLK
notes: FXa is a two-chain protease; also called Factor Xa
